According to patent US20240158515A1 (Regeneron, published 2024):

Legend:
[1] = target: T1, human FGFR3b expressed with a C-terminal murine Fc tag (hFGFR3b.mFc) (human); test: SPR Biacore, mAb captured on anti-hFc, 25C
T1 construct: called dimeric; also called REGN3153; dimeric human FGFR3b
T1 chain: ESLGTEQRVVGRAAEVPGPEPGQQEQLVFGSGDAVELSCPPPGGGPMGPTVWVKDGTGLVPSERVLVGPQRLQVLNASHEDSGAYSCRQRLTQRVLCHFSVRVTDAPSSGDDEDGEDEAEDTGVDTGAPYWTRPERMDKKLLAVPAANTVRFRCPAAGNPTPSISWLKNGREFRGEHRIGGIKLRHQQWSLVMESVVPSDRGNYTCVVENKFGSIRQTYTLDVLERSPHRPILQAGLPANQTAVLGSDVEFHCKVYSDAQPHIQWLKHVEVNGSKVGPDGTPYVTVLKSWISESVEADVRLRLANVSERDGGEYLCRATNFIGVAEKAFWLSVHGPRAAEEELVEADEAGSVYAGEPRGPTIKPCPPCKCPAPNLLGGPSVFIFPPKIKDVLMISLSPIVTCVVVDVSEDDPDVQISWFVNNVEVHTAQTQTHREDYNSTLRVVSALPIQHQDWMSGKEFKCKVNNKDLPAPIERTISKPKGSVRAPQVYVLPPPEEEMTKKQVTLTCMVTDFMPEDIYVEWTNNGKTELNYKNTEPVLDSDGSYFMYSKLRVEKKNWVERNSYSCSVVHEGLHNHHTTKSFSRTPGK
Method: (§1) The CM5 Biacore sensor surface was derivatized by amine coupling with a monoclonal mouse anti-human Fc monoclonal antibody (REGN2567). […] Antibody-reagent association was monitored for 5 minutes while dissociation in HBS-EP running buffer was monitored for 10 minutes. At the end of each cycle, the anti-FGFR3 antibody capture surface was regenerated using a 10 sec injection of 20 mM phosphoric acid. All binding kinetics experiments were performed at 25° C.
(§2) The specific SPR-Biacore sensorgrams were obtained by a double referencing procedure. The double referencing was performed by first subtracting the signal of each injection over a reference surface (anti-hFc) from the signal over the experimental surface (anti-hFc-captured anti-FGFR3 antibodies) thereby removing contributions from refractive index changes. In addition, running buffer injections were performed to allow subtraction of the signal changes resulting from the dissociation of captured antibodies from the coupled anti-hFc surface. Kinetic association (kₐ) and dissociation (kd) rate constants were determined by fitting the real-time sensorgrams to a 1:1 binding model using Scrubber v2.0c curve fitting software.

[2] = target: T2, murine FGFR3b expressed with a C-terminal myc-myc-hexahistidine tag (mFGFR3b.mmH) (murine); test: SPR Biacore, mAb captured on anti-hFc, 25C
T2 construct: also called REGN3215; monomeric murine FGFR3b
T2 chain: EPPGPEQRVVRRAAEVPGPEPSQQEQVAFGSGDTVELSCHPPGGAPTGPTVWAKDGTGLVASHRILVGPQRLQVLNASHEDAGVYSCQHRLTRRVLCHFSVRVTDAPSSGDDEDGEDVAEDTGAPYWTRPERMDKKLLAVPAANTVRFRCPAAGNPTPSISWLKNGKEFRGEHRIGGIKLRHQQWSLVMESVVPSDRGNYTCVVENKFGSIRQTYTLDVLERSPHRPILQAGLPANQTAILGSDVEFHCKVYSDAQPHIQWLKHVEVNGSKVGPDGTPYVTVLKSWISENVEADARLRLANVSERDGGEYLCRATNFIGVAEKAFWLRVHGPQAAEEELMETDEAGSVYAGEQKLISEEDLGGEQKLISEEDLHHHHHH
Method: as §1, §2

[3] = target: T3, human FGFR3b expressed with a C-terminal myc-myc-hexahistidine tag (hFGFR3b.mmH) (human); test: SPR Biacore, mAb captured on anti-hFc, 25C
T3 construct: also called REGN3152; monomeric human FGFR3b
T3 chain: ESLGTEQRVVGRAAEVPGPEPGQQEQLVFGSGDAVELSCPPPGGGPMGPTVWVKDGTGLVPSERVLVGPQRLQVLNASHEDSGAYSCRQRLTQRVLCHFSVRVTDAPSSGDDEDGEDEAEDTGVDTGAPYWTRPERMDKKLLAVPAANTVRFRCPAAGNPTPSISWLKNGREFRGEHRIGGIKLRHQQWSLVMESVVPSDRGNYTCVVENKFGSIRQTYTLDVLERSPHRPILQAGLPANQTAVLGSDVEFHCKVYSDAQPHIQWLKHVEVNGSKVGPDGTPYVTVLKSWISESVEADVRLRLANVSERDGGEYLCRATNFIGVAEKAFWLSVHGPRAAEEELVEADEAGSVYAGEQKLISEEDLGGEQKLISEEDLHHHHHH
Method: as §1, §2

[4] = target: T4, human FGFR3c expressed with a C-terminal myc-myc-hexahistidine tag (hFGFR3c.mmH) (human, UniProt P22607 23-375); test: SPR Biacore, mAb captured on anti-hFc, 25C
T4 construct: also called REGN3155; monomeric human FGFR3c
Method: as §1, §2

[5] = target: T5, cynomolgus FGFR3b expressed with a C-terminal myc-myc-hexahistidine tag (mfFGFR3b.mmH) (cynomolgus); test: SPR Biacore, mAb captured on anti-hFc, 25C
T5 construct: also called REGN3521; mf FGFR3b ecto (R357G)(E23-G377;R357G).mmH
T5 chain: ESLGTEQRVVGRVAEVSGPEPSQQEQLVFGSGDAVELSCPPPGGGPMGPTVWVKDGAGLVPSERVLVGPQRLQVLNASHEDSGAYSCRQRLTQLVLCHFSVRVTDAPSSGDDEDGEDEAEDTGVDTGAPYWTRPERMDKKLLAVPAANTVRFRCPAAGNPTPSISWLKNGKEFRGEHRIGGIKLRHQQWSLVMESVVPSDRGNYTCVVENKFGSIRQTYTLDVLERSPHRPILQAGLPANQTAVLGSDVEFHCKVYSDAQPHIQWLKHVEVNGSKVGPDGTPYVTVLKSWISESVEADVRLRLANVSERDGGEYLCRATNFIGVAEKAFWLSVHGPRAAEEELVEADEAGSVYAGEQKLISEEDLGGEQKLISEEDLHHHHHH
Method: as §1, §2

[6] = target: T2, murine FGFR3b expressed with a …; test: SPR Biacore, mAb captured on anti-hFc, 25C; row marked NB
Method: as §1, §2

[7] = target: T1, human FGFR3b expressed with a …; test: competition ELISA: 4 nM hFGFR3b-mFc binding to plate-coated hFGF acidic
Method: (§3) The fixed concentration of hFGFR3b or hFGFR3c proteins was selected to be near the concentration that generated 50% of the maximal binding (EC₅₀ value) to plate-adhered hFGF acidic or hFGF basic protein. […] The plates were then developed using TMB substrate solution (BD Biosciences) according to the manufacturer's recommended procedure and absorbance at 450 nm was measured on a Victor X5 plate reader.
(§4) Binding data were analyzed using a sigmoidal (four-parameter logistic) dose-response model using GraphPad Prism software. […] Percent blocking of FGFR3 antibody at a given concentration was calculated based on the formula shown below.
(§5) The ability of anti-FGFR3 antibodies to block human FGFR3b binding to hFGF acidic protein or hFGFR3c binding to hFGF acidic or hFGF basic proteins was evaluated using a sandwich ELISA-based blocking assay.

hFGFR3c-hFc [8] = target: T6, hFGFR3c-hFc (human, UniProt P22607 23-375); test: competition ELISA: 7 nM hFGFR3c-hFc binding to plate-coated hFGF basic
T6 construct: range 23-375; Bought (R&D Systems); also called dimeric human FGFR3c; R&D Systems 766-FR-050; not shown: Fc portion of human IgG1, amino acids Pro100-Lys330
T6 sequence (looked up): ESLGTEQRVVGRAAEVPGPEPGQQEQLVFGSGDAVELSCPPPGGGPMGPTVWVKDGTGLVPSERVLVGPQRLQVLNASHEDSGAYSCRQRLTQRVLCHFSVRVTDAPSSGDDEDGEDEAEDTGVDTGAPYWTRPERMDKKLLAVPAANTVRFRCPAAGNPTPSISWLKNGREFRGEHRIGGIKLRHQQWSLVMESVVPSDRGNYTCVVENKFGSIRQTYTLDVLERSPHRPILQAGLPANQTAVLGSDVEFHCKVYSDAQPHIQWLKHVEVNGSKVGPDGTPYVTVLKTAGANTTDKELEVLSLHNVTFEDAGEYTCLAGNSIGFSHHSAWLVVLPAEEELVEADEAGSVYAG
Method: as §3, §4, §5

[9] = target: full length human FGFR3b on BaF3 cells (BAF3/FGFR3b, ACL11991) (human, UniProt P22607 23-808); test: cell-based or functional assay
hFGFR3c-hFc [10] = target: T6, hFGFR3c-hFc; test: competition ELISA: 0.4 nM hFGFR3c-hFc binding to plate-coated hFGF acidic
Method: as §3, §4, §5

B1: H4H30117P2 (antibody, human IgG4 S228P, kappa, V domains shown)
VH: QVQLVQSGAEVKKPGSSVKVSCKASGDTFSNYVIGWVRQAPGQGLEWMGGIIPIFGTTNYAQQFQGRVTITTDESTSTAYMELSSLRSEDTAVYYCARDGNYGDYFDYWGQGTLVTVSS
VL: not shown
30 nM hFGFR3b.mFc Bind (RU) [1]: 337 RU | koff [1]: 0.000133 s⁻¹ | kon [1]: 787000 M⁻¹ s⁻¹ | t½ [1]: 87 min | binding result [2]: no binding (tested: 90 nM) | 90 nM hFGFR3b.mmH Bind (RU) [3]: 178 RU | koff [3]: 0.0063 s⁻¹ | kon [3]: 656000 M⁻¹ s⁻¹ | t½ [3]: 1.8 min | 90 nM hFGFR3c.mmH Bind (RU) [4]: 166 RU | koff [4]: 0.00732 s⁻¹ | kon [4]: 595000 M⁻¹ s⁻¹ | t½ [4]: 1.6 min | 90 nM mfFGFR3b.mmH Bind (RU) [5]: 148 RU | Kd [5]: 15.8 nM | koff [5]: 0.0087 s⁻¹ | kon [5]: 550000 M⁻¹ s⁻¹ | t½ [5]: 1.3 min | 90 nM mFGFR3b.mmH Bind (RU) [6]: 0.9 RU

B2: REGN6331 (antibody, human IgG1, kappa, V domains shown)
VH: EVQLVESGGGLVQPGGSLRLSCAASGFTFTSTGISWVRQAPGKGLEWVGRIYPTSGSTNYADSVKGRFTISADTSKNTAYLQMNSLRAEDTAVYYCARTYGIYDLYVDYTEYVMDYWGQGTLVTVSS
VL: DIQMTQSPSSLSASVGDRVTITCRASQDVDTSLAWYKQKPGKAPKLLIYSASFLYSGVPSRFSGSGSGTDFTLTISSLQPEDFATYYCQQSTGHPQTFGQGTKVEIKR
notes: hIgG1 comparator; also called COMP6331; anti-FGFR3-hIgG1 comparator
% Blocking at 200 nM mAb [7]: 99% | IC50 [7]: 1.5 nM | IC50 (hFGFR3c-hFc [8]): 8.9 nM | 90 nM hFGFR3b.mmH Bind (RU) [3]: 58.4 RU | Kd [3]: 0.697 nM | t½ [3]: 18.8 min | 90 nM hFGFR3c.mmH Bind (RU) [4]: 39.6 RU | Kd [4]: 2.42 nM | t½ [4]: 8.77 min | IC50 [M], BaF3 proliferation (CellTiter-Glo) with 1 nM FGF1 + 5 ug/ml heparin [9]: 5.79e-11 M | Max Blocking (%), BaF3 proliferation (CellTiter-Glo) with 1 nM FGF1 + 5 ug/ml heparin [9]: 97.6% | IC50 (hFGFR3c-hFc [10]): 0.1 nM
